Assays:
[1] = target: recombinant HIV-1 gp120 ZM109 (HIV-1 strain ZM109); experiment: BLI; Octet Red96; anti-Env mAb 2219 (5 μg/mL) on AHC biosensors, then recombinant gp120 ZM109 (5 μg/mL), dipped into titrated FimH; PBS with 0.1% BSA and 0.02% Tween 20; 1:1 global fit
[2] = target: recombinant HIV-1 gp120 ZM109 (HIV-1 strain ZM109); experiment: BLI; Octet Red96; recombinant gp120 coupled to AR2G biosensors, dipped into titrated SLBR-N; PBS with 0.1% BSA and 0.02% Tween 20; 1:1 global fit

Row | Substance | Kd [1] | Kd [2]
1 | recombinant FimH protein (lectin domain only) (from UniProt P08191 22-179) (domain or fragment) | 360 nM | –
2 | Streptococcal Siglec-like lectin SLBR-N, GST-tagged (domain or fragment) | – | 40.3 nM
